Reference: publication PMC9606039 (2022)

Biological target: receptor-binding domain (RBD) (residues 319-541) of the SARS-CoV-2 spike (S) protein (SARS-CoV-2, UniProt P0DTC2 319-541)
Test: BLI

| Binder | Kd [nM] |
| --- | --- |
| LY-CoV1404 Fab (Fab, V domains shown) VH: QITLKESGPTLVKPTQTLTLTCTFSGFSLSISGVGVGWLRQPPGKALEWLALIYWDDDKRYSPSLKSRLTISKDTSKNQVVLKMTNIDPVDTATYYCAHHSISTIFDHWGQGTLVTVSS VL: QSALTQPASVSGSPGQSITISCTATSSDVGDYNYVSWYQQHPGKAPKLMIFEVSDRPSGISNRFSGSKSGNTASLTISGLQAEDEADYYCSSYTTSSAVFGGGTKLTVL | 1.6 |
| 2-7 Fab (Fab, V domains shown) VH: QITLKESGPTLVKPTQTLTLTCTFSGFSLSTSGVGVGWIRQPPGKALEWLALIYWDDDKRYSPSLKSRLTITKDTSKNQVVLTMTNMDPVDTATYYCAHHKIERIFDYWGQGTLVTVSS VL: QSALAQPASVSGSPGQSITISCTGTSSDVGAYNYVSWYQQHPGKAPKLMIYDVSKRPSGVSNRFSGSKSGNTASLTISGLQAEDEADYYCSSYTTSSTVFGGGTKLTVL | 38 |
| 2-7 D54N Fab (Fab, V domains shown) VH: QITLKESGPTLVKPTQTLTLTCTFSGFSLSTSGVGVGWIRQPPGKALEWLALIYWNDDKRYSPSLKSRLTITKDTSKNQVVLTMTNMDPVDTATYYCAHHKIERIFDYWGQGTLVTVSS VL: QSALAQPASVSGSPGQSITISCTGTSSDVGAYNYVSWYQQHPGKAPKLMIYDVSKRPSGVSNRFSGSKSGNTASLTISGLQAEDEADYYCSSYTTSSTVFGGGTKLTVL | > 5000 |
